Data as given in US9745384B2, “Peptides useful for modulating histone demethylase function” (The Brigham and Women's Hospital, Inc., priority 2012, dated 2017).
Ends that are not written are not given here.

B1: NP.d6: NPAC with deletion of the linker region (residues 152-252) (protein)
chain: MAAVSLRLGDLVWGKLGRYPPWPGKIVNPPKDLKKPRGKKCFFVKFFGTEDHAWIKVEQLKPYHAHKEEMIKINKGKRFQQAVDAVEEFLRRAKGKDQTSSHNSSDDKNRRNSSEERSRPNSGDEKRKLSLSEGKVKKNMGEGKKRVSSGSAADSTAVNGSITPTDKKIGFLGLGLMGSGIVSNLLKMGHTVTVWNRTAEKCDLFIQEGARLGRTPAEVVSTCDITFACVSDPKAAKDLVLGPSGVLQGIRPGKCYVDMSTVDADTVTELAQVIVSRGGRFLEAPVSGNQQLSNDGMLVILAAGDRGLYEDCSSCFQAMGKTSFFLGEVGNAAKMMLIVNMVQGSFMATIAEGLTLAHVTGQSQQTLLDILNQGQLASIFLDQKCQNILQGNFKPDFYLKYIQKDLRLAIALGDAVNHPTPMAAAANEVYKRAKALDQSDNDMSAVYRAYIH
modifications: left off: a dimerising Fc or GST; small tags and cut ends
B2: NP.d9: NP.d3 with deletion of amino acids 214-222 (protein)
chain: SERGSKSPLKRAQEQSPRKRGRPPKDEKDLTIPESSTVKGMMAGPMAAFKWQPTASEPVKDASQTEKPAVCYQAITKKLKICEEETGSTSIQ
modifications: left off: a dimerising Fc or GST; small tags and cut ends
B3: NP.d4: GST-tagged NPAC truncation, residues 152-553 (protein)
chain: SERGSKSPLKRAQEQSPRKRGRPPKDEKDLTIPESSTVKGMMAGPMAAFKWQPTASEPVKDADPHFHHFLLSQTEKPAVCYQAITKKLKICEEETGSTSIQAADSTAVNGSITPTDKKIGFLGLGLMGSGIVSNLLKMGHTVTVWNRTAEKCDLFIQEGARLGRTPAEVVSTCDITFACVSDPKAAKDLVLGPSGVLQGIRPGKCYVDMSTVDADTVTELAQVIVSRGGRFLEAPVSGNQQLSNDGMLVILAAGDRGLYEDCSSCFQAMGKTSFFLGEVGNAAKMMLIVNMVQGSFMATIAEGLTLAHVTGQSQQTLLDILNQGQLASIFLDQKCQNILQGNFKPDFYLKYIQKDLRLAIALGDAVNHPTPMAAAANEVYKRAKALDQSDNDMSAVYRAYIH
modifications: left off: a dimerising Fc or GST
B4: NP.d1: GST-tagged NPAC truncation, PWWP domain, residues 1-150 (protein)
chain: MAAVSLRLGDLVWGKLGRYPPWPGKIVNPPKDLKKPRGKKCFFVKFFGTEDHAWIKVEQLKPYHAHKEEMIKINKGKRFQQAVDAVEEFLRRAKGKDQTSSHNSSDDKNRRNSSEERSRPNSGDEKRKLSLSEGKVKKNMGEGKKRVSSG
modifications: left off: a dimerising Fc or GST
B5: NP.d5: GST-tagged NPAC truncation, dehydrogenase domain, residues 262-553 (protein)
chain: SITPTDKKIGFLGLGLMGSGIVSNLLKMGHTVTVWNRTAEKCDLFIQEGARLGRTPAEVVSTCDITFACVSDPKAAKDLVLGPSGVLQGIRPGKCYVDMSTVDADTVTELAQVIVSRGGRFLEAPVSGNQQLSNDGMLVILAAGDRGLYEDCSSCFQAMGKTSFFLGEVGNAAKMMLIVNMVQGSFMATIAEGLTLAHVTGQSQQTLLDILNQGQLASIFLDQKCQNILQGNFKPDFYLKYIQKDLRLAIALGDAVNHPTPMAAAANEVYKRAKALDQSDNDMSAVYRAYIH
modifications: left off: a dimerising Fc or GST
B6: NP.d2: GST-tagged NPAC truncation, residues 1-252 (protein)
chain: MAAVSLRLGDLVWGKLGRYPPWPGKIVNPPKDLKKPRGKKCFFVKFFGTEDHAWIKVEQLKPYHAHKEEMIKINKGKRFQQAVDAVEEFLRRAKGKDQTSSHNSSDDKNRRNSSEERSRPNSGDEKRKLSLSEGKVKKNMGEGKKRVSSGSSERGSKSPLKRAQEQSPRKRGRPPKDEKDLTIPESSTVKGMMAGPMAAFKWQPTASEPVKDADPHFHHFLLSQTEKPAVCYQAITKKLKICEEETGSTSIQ
modifications: left off: a dimerising Fc or GST
B7: NP.d3: GST-tagged NPAC truncation, residues 152-252 (protein)
chain: SERGSKSPLKRAQEQSPRKRGRPPKDEKDLTIPESSTVKGMMAGPMAAFKWQPTASEPVKDADPHFHHFLLSQTEKPAVCYQAITKKLKICEEETGSTSIQ
modifications: left off: a dimerising Fc or GST

Key:
His-LSD2 [1] = biological target: T1, His-LSD2 (Homo sapiens, UniProt Q8NB78); assay: Nucleosome demethylation assay (NPAC cofactor activity for LSD2, immunoblot); assay type: biochemical; conditions: threshold dosage of His-LSD2; nucleosomes purified from HeLa
T1 construct: typically 0.5 μg full-length His-LSD2; made in house; host or cells: Sf9 insect cells
T1 sequence (Q8NB78 1-822): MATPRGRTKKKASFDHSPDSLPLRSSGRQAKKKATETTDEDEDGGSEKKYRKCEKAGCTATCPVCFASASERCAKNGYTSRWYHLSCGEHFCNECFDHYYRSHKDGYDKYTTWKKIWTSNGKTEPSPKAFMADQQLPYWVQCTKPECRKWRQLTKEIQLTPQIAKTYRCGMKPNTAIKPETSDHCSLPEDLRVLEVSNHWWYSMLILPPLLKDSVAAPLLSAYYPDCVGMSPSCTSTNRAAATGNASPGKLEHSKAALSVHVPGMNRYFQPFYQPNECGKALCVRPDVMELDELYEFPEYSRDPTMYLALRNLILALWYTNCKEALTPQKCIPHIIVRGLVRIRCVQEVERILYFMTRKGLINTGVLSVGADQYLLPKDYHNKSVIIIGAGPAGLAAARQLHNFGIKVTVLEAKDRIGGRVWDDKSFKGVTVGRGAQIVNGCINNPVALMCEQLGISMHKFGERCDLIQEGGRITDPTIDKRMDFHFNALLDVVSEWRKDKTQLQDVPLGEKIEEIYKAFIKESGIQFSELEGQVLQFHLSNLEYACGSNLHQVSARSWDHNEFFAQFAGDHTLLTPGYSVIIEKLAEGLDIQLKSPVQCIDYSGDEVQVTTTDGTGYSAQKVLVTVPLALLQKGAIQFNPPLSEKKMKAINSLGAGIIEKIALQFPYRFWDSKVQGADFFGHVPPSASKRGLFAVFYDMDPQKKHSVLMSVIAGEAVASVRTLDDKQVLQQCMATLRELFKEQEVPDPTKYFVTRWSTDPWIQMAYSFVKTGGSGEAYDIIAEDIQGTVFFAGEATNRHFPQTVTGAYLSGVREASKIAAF
Protocol: For nucleosome demethylation assays, typically 0.5 μg full-length His-LSD2, 1 μg NPAC protein or peptides, and 2 μg nucleosomes purified from HeLa were used, and demethylation efficiency was analyzed by SDS-PAGE electrophoresis and immunoblot using methylation specific anti-histone H3 antibodies as previously described (Shi et al. 2004).

His-LSD2 [2] = biological target: T1, His-LSD2; assay: GST-pulldown of His-LSD2 by GST-NPAC proteins; assay type: binding; conditions: coomassie blue staining
Protocol: […] GST or GST-NPAC fusion proteins were bound to glutathione agarose, and were incubated with 2 μg full-length His-LSD2 overnight in 50 mM NaPO4 pH 7.4, 150 mM NaCl, 0.5% NP-40, 5% glycerol, 10 μM ZnSO4, 1 mM MgCl2, 1 mM DTT, 0.1 mM PMSF at 4° C. After washed 4 times with same buffer at 4° C., glutathione agarose beads were boiled in 1×SDS sample loading buffer. Elute was resolved on a 15% SDS-PAGE gel and stained by coomassie blue.

LSD2 (residues 51-822) = biological target: T2, LSD2 (residues 51-822) (Homo sapiens, UniProt Q8NB78); assay: ITC binding of wild-type and mutant NPAC peptides (residues 214-225) with LSD2; conditions: 15 °C; 3 mM NPAC peptide injected into 0.2 mM LSD2
T2 construct: Human LSD2 (residues 51-822) was subcloned into a pFastBacl derivative; His6 (cleaved yes); made in house; host or cells: Sf9 insect cells (baculovirus)
T2 sequence (Q8NB78 51-822): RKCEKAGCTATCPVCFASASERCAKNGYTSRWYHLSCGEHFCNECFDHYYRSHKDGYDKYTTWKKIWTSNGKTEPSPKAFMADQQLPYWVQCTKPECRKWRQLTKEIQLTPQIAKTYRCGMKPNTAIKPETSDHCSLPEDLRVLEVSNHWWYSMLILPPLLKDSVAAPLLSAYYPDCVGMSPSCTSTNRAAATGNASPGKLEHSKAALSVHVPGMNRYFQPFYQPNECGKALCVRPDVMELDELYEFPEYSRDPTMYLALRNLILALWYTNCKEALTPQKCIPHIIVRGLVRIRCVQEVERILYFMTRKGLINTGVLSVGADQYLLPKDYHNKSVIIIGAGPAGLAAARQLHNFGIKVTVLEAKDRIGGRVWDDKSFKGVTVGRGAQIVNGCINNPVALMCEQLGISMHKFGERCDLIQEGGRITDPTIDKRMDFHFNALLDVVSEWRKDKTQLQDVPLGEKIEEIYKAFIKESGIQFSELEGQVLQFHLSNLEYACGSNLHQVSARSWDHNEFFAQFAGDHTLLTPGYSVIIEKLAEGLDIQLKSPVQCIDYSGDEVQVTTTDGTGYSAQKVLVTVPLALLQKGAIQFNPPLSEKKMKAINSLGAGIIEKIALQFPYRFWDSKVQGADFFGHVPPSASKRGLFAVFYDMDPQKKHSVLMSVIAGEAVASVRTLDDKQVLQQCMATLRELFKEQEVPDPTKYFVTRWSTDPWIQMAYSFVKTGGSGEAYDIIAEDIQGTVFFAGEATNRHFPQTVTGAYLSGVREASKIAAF
Protocol: All proteins and peptides were prepared in 10 mM HEPES, pH 8.0, and 0.1 M NaCl. The data were fitted by software Origin 7.0.

Molecule | Cofactor activity: stimulation of LSD2 demethylation of nucleosomal H3K4me2 (His-LSD2 [1]) | LSD2 binding (GST-pulldown) (His-LSD2 [2]) | Δ H (LSD2 (residues 51-822)) [kcal/mol] | Δ S (LSD2 (residues 51-822)) [cal/mol/deg]
NP.d7: NPAC residues 152-186, containing the AT hook motif (SERGSKSPLKRAQEQSPRKRGRPPKDEKDLTIPES; also: fused to dimerising Fc or GST) | but not NP.d7 or NP.d9, significantly enhances LSD2 histone demethylase activity | but not NP.d7 (residues 152-186, containing the AT hook motif, lane 4), is sufficient for LSD2 interaction |  | 
CC(C)C[C@H](NC(=O)[C@H](Cc1ccccc1)NC(=O)[C@H](Cc1c[nH]cn1)NC(=O)[C@H](Cc1c[nH]cn1)NC(=O)[C@H](C)NC(=O)[C@H](C)NC(=O)[C@@H]1CCCN1C(=O)[C@H](C)N)C(=O)N[C@@H](CC(C)C)C(=O)N[C@@H](CO)C(=O)N[C@@H](CCC(N)=O)C(=O)N[C@H](C(=O)O)[C@@H](C)O [NPAC.214-225.M8] |  |  | -8.288 ± 0.101 | −1.3
B1 | abolishes cofactor activity | abolishes NPAC-LSD2 interaction |  | 
B2 | but not NP.d7 or NP.d9, significantly enhances LSD2 histone demethylase activity | completely abolishes LSD2 binding |  | 
B3 | significantly enhance LSD2 demethylase activity | capable of directly interacting with LSD2 |  | 
B4 | Neither the PWWP domain (SEQ ID NO: 63) (NP.d1, residues 1-150) nor the dehydrogenase domain (NP.d5, residues 262-553) stimulated LSD2 | Neither the PWWP domain (SEQ ID NO: 63) (NP.d1) nor the dehydrogenase domain (NP.d5) interacts with LSD2 |  | 
B5 | Neither the PWWP domain (SEQ ID NO: 63) (NP.d1, residues 1-150) nor the dehydrogenase domain (NP.d5, residues 262-553) stimulated LSD2 | Neither the PWWP domain (SEQ ID NO: 63) (NP.d1) nor the dehydrogenase domain (NP.d5) interacts with LSD2 |  | 
B6 | significantly enhance LSD2 demethylase activity | capable of directly interacting with LSD2 |  | 
B7 | significantly enhance LSD2 demethylase activity | capable of directly interacting with LSD2 |  | 
